{
  "source": "patent US10385380B2",
  "about": "“Personalized protease assay to measure protease activity in neoplasms” (The Regents of the University of California, priority 2014, dated 2019)",
  "key": {"[1]": {"tested_on": "multiple MMPs", "test": "Specificity of first generation cleavable site among MMPs", "assay_type": "biochemical", "description": "In contrast to mRNA expression or copy number detection methods, RACPPs detect in vivo protease activity, thus bypassing the complicated interplay between transcription/translation, pro- and active forms of the enzymes, as well as the presence of inhibitors/activators etc. It was shown that RACPP uptake correlates with tumor burden^15 and with tumor characteristics corresponding to poor survival^18.\nRACPPs are capable of monitoring protease activity in real time living animal models of cancer. […] To tease out the involvement of specific individual proteases involved in the various stages of cancer growth, invasion and metastasis, it was sought to identify RACPP cleavable sites that are specific for individual select proteases."}, "[2]": {"target": "T1, MMP-2 (Homo sapiens, UniProt P08253)", "T1 sequence (P08253 110-660)": "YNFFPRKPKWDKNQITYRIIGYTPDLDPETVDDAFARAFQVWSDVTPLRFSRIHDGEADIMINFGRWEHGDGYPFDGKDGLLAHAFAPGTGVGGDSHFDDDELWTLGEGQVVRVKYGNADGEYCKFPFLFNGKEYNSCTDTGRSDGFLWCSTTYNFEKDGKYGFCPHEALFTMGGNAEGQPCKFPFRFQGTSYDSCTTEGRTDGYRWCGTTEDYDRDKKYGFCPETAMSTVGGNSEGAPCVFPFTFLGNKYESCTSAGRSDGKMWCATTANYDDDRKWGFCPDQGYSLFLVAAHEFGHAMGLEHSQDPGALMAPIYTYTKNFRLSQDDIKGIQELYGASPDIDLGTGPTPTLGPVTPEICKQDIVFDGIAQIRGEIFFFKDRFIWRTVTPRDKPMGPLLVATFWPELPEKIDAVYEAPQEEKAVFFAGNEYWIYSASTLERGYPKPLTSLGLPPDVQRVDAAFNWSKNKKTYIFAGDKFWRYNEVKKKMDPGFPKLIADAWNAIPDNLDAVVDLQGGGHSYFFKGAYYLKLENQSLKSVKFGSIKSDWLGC", "test": "Cell uptake after cleavage of linker by MMP-2", "assay_type": "cell-based", "details": "cleaved by MMP-2", "description": "For example, a linker X that includes the amino-acid sequence PLGLAG (SEQ ID NO: 1) may be cleaved by the metalloproteinase enzyme MMP-2 (a major MMP in cancer and inflammation). Cleavage of such a linker X occurs between the central G and L residues, causing cell uptake to increase by 10 to 20-fold. A great deal is known about the substrate preferences of different MMPs, so that linkers X may be designed that are able to bias X to be preferentially sensitive to particular subclasses of MMPs, or to individual members of the large MMP family of proteinases. For example, in some embodiments, linkers X designed to be cleaved by membrane-anchored MMPs are particularly employed because their activity remains localized to the outer surface of the expressing cell. In alternative embodiments, linkers X designed to be cleaved by a soluble secreted MMP are employed where diffusion of cargo C away from the exact location of cleavage may be desired, thereby increasing the spatial distribution of the cargo. Other linkers X cleavable by other MMPs are discussed throughout the application."}, "[3]": {"target": "MMP-14 (Homo sapiens, UniProt P50281)", "test": "Cleavage of ACPP substrates by purified MMP-14", "assay_type": "biochemical", "details": "versus MMP-2 and MMP-9", "description": "(§1) FIG. 7 describes selectivity for substrates for MMP2, 9 and 14 (1 uM peptide 20 nM enzyme). A) MT1 selective RSHPHfeTLY (SEQ ID NO: 19).\n(§2) FIG. 8A, FIG. 8B and FIG. 8C describe selectivity for substrate cut with MMP-2, MMP9 and MMP-14.\n(§3) To generate new substrates for MMPs, amino acids were substituted at key position at and near the cleavage site based on the following rule derived by recent work by Ratnikov et al^26 that the amino acid at a certain position must improve cleavage by the specific enzyme and reduce cleavage by other related enzymes. For increased specificity, an amino acid should be red for the enzyme of interest compared green for the other enzymes at the same substitution position (FIG. 36A). These substrates will be tested by treating 5 μM peptide with 20 nM of each enzyme for 2 hours and analyse by gel electrophoresis.\n(§4) FAM/Cy5 ratiometric versions of RACPPs with these sequences were made and tested to confirm selectivity. The preferred form Cy5/Cy7 ratiometric versions for in vivo testing with a pegylated carrier to help with solubility is currently being synthesized. For MMP 11 a similar approach will be adopted in finding selective substrates.^26."}, "[4]": {"target": "MT2-MMP (Homo sapiens, UniProt P51511)", "sequence (P51511 132-669, species assumed)": "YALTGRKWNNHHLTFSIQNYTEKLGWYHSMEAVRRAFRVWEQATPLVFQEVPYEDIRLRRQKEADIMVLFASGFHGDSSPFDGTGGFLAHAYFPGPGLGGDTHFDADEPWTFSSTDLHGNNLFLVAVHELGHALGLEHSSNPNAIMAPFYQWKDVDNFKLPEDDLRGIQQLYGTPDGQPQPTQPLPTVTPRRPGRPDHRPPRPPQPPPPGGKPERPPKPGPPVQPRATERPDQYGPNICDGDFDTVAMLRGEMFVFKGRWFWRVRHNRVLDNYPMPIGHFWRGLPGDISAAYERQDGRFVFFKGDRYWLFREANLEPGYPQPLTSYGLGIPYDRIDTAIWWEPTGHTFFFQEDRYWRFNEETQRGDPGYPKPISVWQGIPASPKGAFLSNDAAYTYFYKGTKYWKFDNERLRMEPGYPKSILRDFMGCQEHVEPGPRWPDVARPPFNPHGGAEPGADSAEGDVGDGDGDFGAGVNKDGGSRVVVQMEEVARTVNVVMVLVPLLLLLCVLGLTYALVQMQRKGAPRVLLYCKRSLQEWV", "test": "Cleavage of RS-(Cit)-G-(homoF)-YLY derivatives by MT2-MMP", "assay_type": "biochemical"}, "[5]": {"target": "MMP9 (Homo sapiens, UniProt P14780)", "sequence (P14780 94-707)": "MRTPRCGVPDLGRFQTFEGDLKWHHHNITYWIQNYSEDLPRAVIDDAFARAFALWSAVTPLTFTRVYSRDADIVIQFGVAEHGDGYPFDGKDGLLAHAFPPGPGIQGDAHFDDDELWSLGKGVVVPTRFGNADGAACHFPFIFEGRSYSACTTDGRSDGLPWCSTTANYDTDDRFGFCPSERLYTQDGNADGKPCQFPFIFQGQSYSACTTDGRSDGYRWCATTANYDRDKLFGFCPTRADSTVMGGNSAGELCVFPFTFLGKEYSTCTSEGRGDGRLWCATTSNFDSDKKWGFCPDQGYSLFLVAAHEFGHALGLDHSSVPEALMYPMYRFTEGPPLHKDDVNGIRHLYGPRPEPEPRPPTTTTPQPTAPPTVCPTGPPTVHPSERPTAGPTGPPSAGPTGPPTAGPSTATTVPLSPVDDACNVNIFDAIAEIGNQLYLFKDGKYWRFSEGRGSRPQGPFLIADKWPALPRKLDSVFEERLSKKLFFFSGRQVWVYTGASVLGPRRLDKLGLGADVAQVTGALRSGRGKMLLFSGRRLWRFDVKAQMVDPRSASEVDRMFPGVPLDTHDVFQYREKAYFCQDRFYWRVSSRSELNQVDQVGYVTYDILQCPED", "test": "Cleavage of ACPP substrates by purified MMP-9", "assay_type": "biochemical", "details": "versus MMP-2 and MMP-14", "description": "as §1, §2, §3, §4"}, "[6]": {"target": "T1, MMP-2", "test": "Cleavage of ACPP substrates by purified MMP-2", "assay_type": "biochemical", "details": "versus MMP-9 and MMP-14", "description": "as §1, §2, §3, §4"}, "[7]": {"target": "urokinase plasminogen activator (uPA) (Homo sapiens, UniProt P00749)", "test": "Screen of protease substrates for cleavage by uPA", "assay_type": "biochemical", "details": "substrate in the context of an ACPP", "description": "(§5) To generate novel RACPP species that are selective for uPA, a set of protease substrates were screened that were diverse and likely cleaved by serine protease in that they contain either a lysine or arginine residue flanked by diverse amino acids. […] Several other substrates that were reported to be cleaved by uPA were also tested but were not cleaved possible because the constrained structure of the substrate within the context of an ACPP.\nTo generate novel RACPP species that are specific for uPA, a set of protease substrates were screened that were diverse and likely cleaved by serine protease in that they contain either a lysine or arginine residue flanked by diverse amino acids."}, "[8]": {"target": "tPA (Homo sapiens, UniProt P00750)", "sequence (P00750 36-562, species assumed)": "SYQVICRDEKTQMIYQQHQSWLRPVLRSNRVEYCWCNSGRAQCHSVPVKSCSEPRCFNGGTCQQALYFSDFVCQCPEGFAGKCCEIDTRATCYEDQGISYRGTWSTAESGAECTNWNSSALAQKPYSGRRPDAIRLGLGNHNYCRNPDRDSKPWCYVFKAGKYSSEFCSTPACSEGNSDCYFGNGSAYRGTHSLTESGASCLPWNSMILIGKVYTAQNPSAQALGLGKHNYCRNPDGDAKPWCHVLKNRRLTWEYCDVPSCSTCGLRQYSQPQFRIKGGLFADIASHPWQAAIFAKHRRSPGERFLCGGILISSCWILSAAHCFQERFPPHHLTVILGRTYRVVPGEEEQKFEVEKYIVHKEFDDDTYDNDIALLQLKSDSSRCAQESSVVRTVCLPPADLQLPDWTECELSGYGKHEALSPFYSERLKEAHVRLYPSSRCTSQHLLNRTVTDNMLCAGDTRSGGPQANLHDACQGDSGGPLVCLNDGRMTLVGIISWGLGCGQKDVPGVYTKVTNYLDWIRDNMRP", "test": "Screen of protease substrates for cleavage by tPA", "assay_type": "biochemical", "details": "compared with uPA", "description": "as §5"}},
  "note": "“Also recorded” adds a separate entry of the source. Read-outs that look alike come from different tables or passages of the source. Where no end group is shown, it is not given here. [ ]: non-standard residue; d: D form. hPhe = N[C@@H](CCc1ccccc1)C(=O)O",
  "data": [
    {"substance": "PLGC(Me)AG", "values": [
      {"measurement": "cleavage by multiple MMPs (lack of specificity)", "setting": "[1]", "result": "cut by multiple MMPs"},
      {"measurement": "cleavage by multiple MMPs (lack of specificity)", "setting": "[1]; listed as PLGC(me)AG", "result": "cleaved by multiple proteases"}
    ]},
    {"substance": "PLGLAG (cleavable linker)", "values": [
      {"measurement": "increase of cell uptake after cleavage between the central G and L residues", "setting": "[2]", "result": "10 to 20", "unit": "fold"}
    ]},
    {"substance": "RS-(Cit)-G-(homoF)-YLY", "values": [
      {"measurement": "cleavage by / selectivity for MMP-14 (MT1-MMP)", "setting": "[3]", "result": "MMP14 selective"}
    ]},
    {"substance": "RS-Q-G-(homoF)-YLY (RSQG[hPhe]YLY)", "values": [
      {"measurement": "cleavage by MT2-MMP", "setting": "[4]", "result": "significant cleavage"}
    ]},
    {"substance": "RSHG-(homoF)-FLY (RSHG[hPhe]FLY)", "values": [
      {"measurement": "cleavage by / selectivity for MMP-14 (MT1-MMP)", "setting": "[3]", "result": "highly selective and efficiently cleaved"},
      {"measurement": "cleavage by / selectivity for MMP-14 (MT1-MMP)", "setting": "[3]; listed as RSHG(Hfe)FLY", "result": "selective"}
    ]},
    {"substance": "RSHP[hPhe]TLY", "values": [
      {"measurement": "cleavage by / selectivity for MMP-14 (MT1-MMP)", "setting": "[3]", "result": "MMP14 selective"},
      {"measurement": "cleavage by / selectivity for MMP-14 (MT1-MMP)", "setting": "[3]; listed as RSHPHfeTLY", "result": "MT1 selective"}
    ]},
    {"substance": "SNPYG-Y (SNPYGY; cleavable linker)", "values": [
      {"measurement": "cleavage by / selectivity for MMP9", "setting": "[5]", "result": "MMP9 selective"}
    ]},
    {"substance": "SNPYK-Y (SNPYKY; cleavable linker)", "values": [
      {"measurement": "cleavage by / selectivity for MMP9", "setting": "[5]", "result": "MMP9 selective"},
      {"measurement": "cleavage by / selectivity for MMP9", "setting": "[5]; listed as SNPYKY", "result": "selective"}
    ]},
    {"substance": "TIAH/LH", "values": [
      {"measurement": "cleavage by / selectivity for MMP-2", "setting": "[6]", "result": "selectively cleaved"}
    ]},
    {"substance": "TIAHLA (cleavable linker)", "values": [
      {"measurement": "cleavage by / selectivity for MMP-2", "setting": "[6]", "result": "MMP2 selective"}
    ]},
    {"substance": "TLSE-LH (TLSELH; cleavable linker)", "values": [
      {"measurement": "cleavage by / selectivity for MMP-2", "setting": "[6]", "result": "MMP-2 selective"}
    ]},
    {"substance": "YGRAAA (cleavable linker)", "values": [
      {"measurement": "cleavage by uPA", "setting": "[7]", "result": "efficiently cleaved; also recorded: increase in Cy5/Cy7 signal ratio"},
      {"measurement": "cleavage by tPA", "setting": "[8]", "result": "to a lesser extent"}
    ]}
  ]
}
